Source: patent US20150291692A1 (INNATE PHARMA, published 2015)

Tests used:
[1] = target: T1, KIR3DL2 recombinant protein (R&D Systems) (human, UniProt P43630 28-340); experiment: SCK kinetic method
T1 construct: Bought protein; also called rec KIR3DL2; recombinant KIR3DL2-Fc fusion protein; not shown: Fc part of the bought fusion protein; not described

[2] = target: T2, KIR2DS1 on transfected BWZ cells (UniProt Q14954 22-304, limits assumed); experiment: flow cytometry on transfected BWZ cells
T2 construct: whole, on cells; also called BWZ-KIR2DS1
T2 sequence (Q14954 22-304 limits assumed): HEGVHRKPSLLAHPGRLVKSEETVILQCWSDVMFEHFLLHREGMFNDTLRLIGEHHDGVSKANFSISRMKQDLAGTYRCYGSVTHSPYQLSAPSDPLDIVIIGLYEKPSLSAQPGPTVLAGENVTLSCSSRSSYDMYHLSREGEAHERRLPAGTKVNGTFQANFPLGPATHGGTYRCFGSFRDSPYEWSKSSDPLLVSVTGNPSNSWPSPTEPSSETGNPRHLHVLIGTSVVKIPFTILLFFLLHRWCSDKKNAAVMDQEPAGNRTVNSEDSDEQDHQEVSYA

[3] = target: T3, KIR2DS2 on transfected BWZ cells (UniProt P43631 22-304, limits assumed); experiment: flow cytometry on transfected BWZ cells
T3 construct: whole, on cells
T3 sequence (P43631 22-304 limits assumed): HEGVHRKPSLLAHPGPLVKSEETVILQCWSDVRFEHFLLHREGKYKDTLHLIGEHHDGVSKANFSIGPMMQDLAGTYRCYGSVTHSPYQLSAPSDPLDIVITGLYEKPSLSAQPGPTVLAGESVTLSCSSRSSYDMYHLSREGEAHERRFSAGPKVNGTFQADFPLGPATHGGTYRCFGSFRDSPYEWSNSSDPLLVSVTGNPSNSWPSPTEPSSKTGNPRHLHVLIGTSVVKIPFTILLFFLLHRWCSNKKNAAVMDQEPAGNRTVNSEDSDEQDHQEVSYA

[4] = target: T4, KIR2DL3 on transfected BWZ cells (UniProt P43628 22-341, limits assumed); experiment: flow cytometry on transfected BWZ cells
T4 construct: whole, on cells
T4 sequence (P43628 22-341 limits assumed): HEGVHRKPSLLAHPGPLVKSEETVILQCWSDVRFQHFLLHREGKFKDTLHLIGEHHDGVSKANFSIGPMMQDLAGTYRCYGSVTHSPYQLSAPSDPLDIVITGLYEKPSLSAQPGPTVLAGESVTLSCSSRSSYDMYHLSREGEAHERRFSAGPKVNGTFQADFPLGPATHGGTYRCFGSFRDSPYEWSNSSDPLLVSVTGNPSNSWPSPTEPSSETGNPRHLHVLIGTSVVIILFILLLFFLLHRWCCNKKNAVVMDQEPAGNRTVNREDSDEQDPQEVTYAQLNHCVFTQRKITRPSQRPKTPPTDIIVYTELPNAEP

[5] = target: T5, KIR2DL1 on transfected BWZ cells (UniProt P43626 22-348, limits assumed); experiment: flow cytometry on transfected BWZ cells
T5 construct: whole, on cells
T5 sequence (P43626 22-348 limits assumed): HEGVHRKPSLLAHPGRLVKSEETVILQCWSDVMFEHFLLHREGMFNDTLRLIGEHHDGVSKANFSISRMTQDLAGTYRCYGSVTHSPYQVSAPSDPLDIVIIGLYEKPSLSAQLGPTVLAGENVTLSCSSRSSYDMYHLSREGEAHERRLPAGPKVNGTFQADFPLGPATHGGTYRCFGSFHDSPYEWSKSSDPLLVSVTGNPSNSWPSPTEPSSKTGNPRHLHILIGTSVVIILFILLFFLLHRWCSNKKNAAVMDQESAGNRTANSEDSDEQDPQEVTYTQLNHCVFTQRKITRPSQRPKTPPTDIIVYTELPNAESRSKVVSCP

[6] = target: T6, KIR2DS4 on transfected BWZ cells (UniProt P43632 22-304, limits assumed); experiment: flow cytometry on transfected BWZ cells
T6 construct: whole, on cells
T6 sequence (P43632 22-304 limits assumed): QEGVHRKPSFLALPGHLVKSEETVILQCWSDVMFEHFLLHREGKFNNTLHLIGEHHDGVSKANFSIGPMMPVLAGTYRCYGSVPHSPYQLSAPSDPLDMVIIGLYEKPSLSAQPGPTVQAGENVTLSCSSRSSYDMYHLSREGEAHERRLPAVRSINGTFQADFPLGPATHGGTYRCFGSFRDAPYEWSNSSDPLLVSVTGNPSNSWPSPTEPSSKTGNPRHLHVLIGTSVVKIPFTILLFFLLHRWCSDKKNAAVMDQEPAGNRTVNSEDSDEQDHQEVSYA

[7] = target: T7, KIR3DL1 expressed on cells (human, UniProt P43629 22-444); experiment: flow cytometry on HEK KIR3DL1 cells (row HEK-KIR3DL1)
T7 construct: also called HEK-293T/KIR3DL1
T7 sequence (P43629 22-444 limits assumed): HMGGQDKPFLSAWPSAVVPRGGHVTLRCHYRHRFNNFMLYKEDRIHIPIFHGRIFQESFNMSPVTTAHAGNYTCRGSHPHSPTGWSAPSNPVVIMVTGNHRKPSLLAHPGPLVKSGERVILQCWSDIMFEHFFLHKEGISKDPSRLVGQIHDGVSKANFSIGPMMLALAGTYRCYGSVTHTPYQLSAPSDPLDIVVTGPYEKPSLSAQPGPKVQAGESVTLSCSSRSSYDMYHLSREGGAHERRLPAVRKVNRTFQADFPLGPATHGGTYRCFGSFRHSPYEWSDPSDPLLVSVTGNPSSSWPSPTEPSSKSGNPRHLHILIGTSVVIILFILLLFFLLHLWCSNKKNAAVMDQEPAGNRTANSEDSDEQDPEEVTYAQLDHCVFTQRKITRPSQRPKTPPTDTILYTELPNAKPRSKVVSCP

[8] = target: T1, KIR3DL2 recombinant protein (R&D …); experiment: SPR (Biacore T100), antibody injected over immobilised recombinant KIR3DL2, bivalent affinity, pH 7.2
[9] = target: T8, KIR3DL2 mutant M7 (L113V;T118R) (human, UniProt P43630 22-455); experiment: flow cytometry on HEK-293T cells transfected with the mutant; + no significant loss of binding, ± decrease
T8 construct: Expressed on transfected HEK-293T cells; also called Number 7

[10] = target: T9, KIR3DL2 mutant M9 (L164M;P166L;V167A) (human, UniProt P43630 22-455); experiment: as above
T9 construct: Expressed on transfected HEK-293T cells; also called Number 9

[11] = target: T10, KIR3DL2 mutant M10 (R136K;E141K) (human, UniProt P43630 22-455); experiment: as above
T10 construct: Expressed on transfected HEK-293T cells; also called Number 10

[12] = target: T11, KIR3DL2 mutant M11 (P179T;S181T) (human, UniProt P43630 22-455); experiment: as above
T11 construct: Expressed on transfected HEK-293T cells; also called Number 11; mutant 11

[13] = target: T12, KIR3DL2 mutant M11A1 (V178A;H180S) (human, UniProt P43630 22-455); experiment: as above
T12 construct: Expressed on transfected HEK-293T cells; also called Number 24 (11A1); mutant 11A1

[14] = target: T13, KIR3DL2 mutant M11A3 (N99S;H100S;Q184A) (human, UniProt P43630 22-455); experiment: as above
T13 construct: Expressed on transfected HEK-293T cells; also called Number 26 (11A3)

[15] = target: T14, KIR3DL2 mutant M11A5 (V147A;Q149S) (human, UniProt P43630 22-455); experiment: as above
T14 construct: Expressed on transfected HEK-293T cells; also called Number 28 (11A5)

[16] = target: T15, KIR3DL2 mutant M8 + 11 (V127I;P179T;S181T) (human, UniProt P43630 22-455); experiment: as above
T15 construct: Expressed on transfected HEK-293T cells; also called Number 23 (8 + 11)

[17] = target: T16, KIR3DL2 mutant M11A4 (E130S;H131S;R145S) (human, UniProt P43630 22-455); experiment: flow cytometry on HEK-293T cells transfected with the mutant; - means substantially complete loss of binding
T16 construct: Expressed on transfected HEK-293T cells; also called Number 27 (11A4)

[18] = target: T17, KIR3DL2 mutant M11A6 (I150A;M128A) (human, UniProt P43630 22-455); experiment: as above
T17 construct: Expressed on transfected HEK-293T cells; also called Number 29 (11A6)

[19] = target: T18, KIR3DL2 at the surface of HUT78 Sezary Syndrome cell line (human, UniProt P43630 22-455); experiment: flow cytometry competition on HUT78 cells; naked antibody titrated against 15C11-PE (5 µg/ml)
T18 construct: whole, on cells; Two alleles are expressed

[20] = target: T19, NK cells, including normal KIR3DL2+ NK cells (Homo sapiens, UniProt P43630); experiment: flow cytometry of whole blood of a Sezary Syndrome patient, antibody + GaM-PE against CD4; lower gate (CD4-negative NK cells)
T19 construct: full-length receptor on the cell surface; also called gate NK GaM PE+; KIR3DL2 on CD4-negative NK cells in the blood of the Sezary Syndrome patient

[21] = target: T20, KIR3DL2 on fresh Sezary Syndrome cells of patients (human, UniProt P43630 22-455); experiment: flow cytometry of whole blood of a Sezary Syndrome patient, antibody + GaM-PE against CD4; upper gate (CD4+ KIR3DL2+ leukemic Sezary cells)
T20 construct: whole, on cells; also called SS cells

[22] = target: T21, wild-type human KIR3DL2 (allele *002) expressed on transfected HEK-293T cells (human, UniProt P43630 22-455); experiment: flow cytometry on transfected HEK-293T cells
T21 construct: also called HEK-293T/KIR3DL2; WTaKIR3DL2

[23] = target: T22, KIR3DL2 mutant M8 (V127I) (human, UniProt P43630 22-455); experiment: flow cytometry on HEK-293T cells transfected with the mutant; + no significant loss of binding, ± decrease
T22 construct: Expressed on transfected HEK-293T cells; also called Number 8; Mutant 8

[24] = target: T16, KIR3DL2 mutant M11A4 (E130S;H131S;R145S); experiment: as above
[25] = target: T17, KIR3DL2 mutant M11A6 (I150A;M128A); experiment: as above
[26] = target: T11, KIR3DL2 mutant M11 (P179T;S181T); experiment: flow cytometry on HEK-293T cells transfected with the mutant; - means substantially complete loss of binding
[27] = target: T12, KIR3DL2 mutant M11A1 (V178A;H180S); experiment: as above
[28] = target: T23, KIR3DL2 mutant M5 + 11 (P66T;P179T;S181T) (human, UniProt P43630 22-455); experiment: as above
T23 construct: Expressed on transfected HEK-293T cells; also called Number 22 (5 + 11)

[29] = target: T15, KIR3DL2 mutant M8 + 11 …; experiment: as above
[30] = target: T24, KIR3DL2 mutant 1 (R13W, A25T, Q27R) (human, UniProt P43630 22-455); experiment: flow cytometry on HEK-293T cells transfected with the mutant
T24 construct: Expressed on transfected HEK-293T cells; also called Number 1

[31] = target: T25, KIR3DL2 mutant 2 (I60N, G62S) (human, UniProt P43630 22-455); experiment: as above
T25 construct: The running text prints 160N for I60N; Expressed on transfected HEK-293T cells; also called Number 2

[32] = target: T26, KIR3DL2 mutant 2A2 (Q56S, E57A) (human, UniProt P43630 22-455); experiment: as above
T26 construct: Expressed on transfected HEK-293T cells; also called Number 34 (1 + 2 A2)

[33] = target: T27, KIR3DL2 mutant MD0/HLA1 (F9S, S11A) (human, UniProt P43630 22-455); experiment: as above
T27 construct: Expressed on transfected HEK-293T cells; also called Number 31 (D0-HLA1)

B1: antibody 15C11 (antibody, mouse IgG2a, V domains shown)
VH: EVKLEESGGGLVQPGGSMKLSCAASGFTFSDAWMDWVRQSPEKGLEWVAEIRSKANNHATYYAESVKGRFTISRDDSKSSVYLRMNSLRAEDTGIYYCTGGYYPVYWGQGTLVTVSA
VL: DIQMTQSPSSLSASLGGKVTITCKASQDINKNIAWYQHKPGKGPRLLIHYTSTLQPGFPSRFSGSGSGRDYSFSISNLEPEDLATYYCLQYDNLLTFGGGTKLEIK
notes: also called M-K32-15C11; 15C11-PE (PE-labelled form)
Kd [1]: 0.37 nM
koff [1]: 0.00011 s⁻¹
binding result [2]: no binding (tested: 10 µg/ml)
binding result [3]: no binding (tested: 10 µg/ml)
binding result [4]: no binding (tested: 10 µg/ml)
binding result [5]: no binding (tested: 10 µg/ml)
binding result [6]: no binding (tested: 10 µg/ml)
binding result [7]: no binding
Kd [8]: 0.78 nM
binding result [9]: binds
binding result [10]: binds
binding result [11]: binds
binding result [12]: binds
binding result [13]: binds
binding result [14]: binds
binding result [15]: binds
binding result [16]: binds
binding result [17]: no binding
binding result [18]: no binding
IC50 (read off the curve) [19]: ~0.4 µg/mL
% of cells in gate NK GaM PE+ [20]: 12.7%
% of cells in gate CD4 GaM PE+ [21]: 7.6%

B2: antibody 12B11 (antibody, V domains shown)
VH: QLVQSGPELKNPGETVKISCKASGYTFTNYGMNWVKQAPGKGLKWMGWINTYTGEPTYADDFKGRFAFSLETSASTAYLQINNLKNEDTATYFCAHGPWLAYWGQGTLVTVS
VL: DIKMTQSPSSMYASLGERVTITCKASQDINVYLSWFQQKPGKSPKTLIYRAIRLVDGVPSRFSGSGSGQDYSLTISSLDYEDMGIYYCLQYDELPYTFGGGTKLEIE
binding result [22]: binds
binding result [9]: binds
binding result [23]: binds
binding result [10]: binds
binding result [11]: binds
binding result [14]: binds
binding result [24]: binds
binding result [15]: binds
binding result [25]: binds
binding result [26]: no binding
binding result [27]: no binding
binding result [28]: no binding
binding result [29]: no binding

B3: antibody 13H1 (antibody, V domains shown)
VH: EVQLQQSGPELVKPGASMKISCKASHYSFIGYTMNWVKQRHGKNLEWIGLINPYNGDTTYNQKFKGKASLTVDKSSSTAYMEILSLTSEDSAVYYCARENWGYPYAMDYWGQGTSVTVS
VL: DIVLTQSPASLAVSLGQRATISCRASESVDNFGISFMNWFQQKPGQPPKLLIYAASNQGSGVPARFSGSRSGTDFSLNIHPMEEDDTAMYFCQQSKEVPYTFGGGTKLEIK
binding result [30]: no binding
binding result [31]: no binding
binding result [32]: binds
binding result [33]: binds
